Data reported in US20200339676A1 (University of California, published 2020).

How the values were obtained:
[1] = target: Endogenous NOTCH1 (MDA-MB-231 cell lysate) (UniProt P46531 19-2555, limits assumed); test: co-immunoprecipitation of endogenous proteins, MDA-MB-231 lysates, Western blot
Protocol: (§1) Notch receptor activation can be regulated through direct interactions with binding partners²⁴. […] To address this possibility, co-immunoprecipitation experiments were performed using MBA-MD-231 cells lysates, which express detectable levels of all four Notch receptors (NOTCH1-4). Endogenous ROBO1 co-immunoprecipitated with NOTCH4, but not […], NOTCH2 or NOTCH3 (FIG. 3H and data not shown). Next, the expression and subcellular localization of the NOTCH4 intracellular domain (N4-ICD) and HES1 was examined in control (Scr) and Robo1 (siR1) knockdown HC11 cells. Expression of Robo1 was inhibited in HC11 cells that were then primed for differentiation as described above. […] This effect was not observed in control Robo1 knockdown cells engineered to overexpress Robo1 (siR1+o/e) or cells treated with the γ-secretase inhibitor GSI (siR1+GSI) (FIGS. 3I-3K).
(§2) Adherent cells were lysed in 1 mL of 1× lysis buffer ([…] NaCl, 10 mM Tris-HCl pH8, […] EDTA, 1 mM sodium orthovanadate) supplemented with 1 percent Igepal NP40 (Sigma), 1 mM phenylmethanesulfonylfluoride (PMSF), 1 mM leupeptin, 1 mM aprotinin, and phosphatase inhibitors (Roche Complete). Cell lysate was incubated for 15 minutes at 4° C. with gentle rocking followed by centrifugation at 12,000 rpms for 10 minutes. […]

[2] = target: Endogenous NOTCH3 (MDA-MB-231 cell lysate) (UniProt Q9UM47 40-2321, limits assumed); test: co-immunoprecipitation of endogenous proteins, MDA-MB-231 lysates (data not shown)
Chain of Endogenous NOTCH3 (MDA-MB-231 cell lysate) (Q9UM47 40-2321 limits assumed): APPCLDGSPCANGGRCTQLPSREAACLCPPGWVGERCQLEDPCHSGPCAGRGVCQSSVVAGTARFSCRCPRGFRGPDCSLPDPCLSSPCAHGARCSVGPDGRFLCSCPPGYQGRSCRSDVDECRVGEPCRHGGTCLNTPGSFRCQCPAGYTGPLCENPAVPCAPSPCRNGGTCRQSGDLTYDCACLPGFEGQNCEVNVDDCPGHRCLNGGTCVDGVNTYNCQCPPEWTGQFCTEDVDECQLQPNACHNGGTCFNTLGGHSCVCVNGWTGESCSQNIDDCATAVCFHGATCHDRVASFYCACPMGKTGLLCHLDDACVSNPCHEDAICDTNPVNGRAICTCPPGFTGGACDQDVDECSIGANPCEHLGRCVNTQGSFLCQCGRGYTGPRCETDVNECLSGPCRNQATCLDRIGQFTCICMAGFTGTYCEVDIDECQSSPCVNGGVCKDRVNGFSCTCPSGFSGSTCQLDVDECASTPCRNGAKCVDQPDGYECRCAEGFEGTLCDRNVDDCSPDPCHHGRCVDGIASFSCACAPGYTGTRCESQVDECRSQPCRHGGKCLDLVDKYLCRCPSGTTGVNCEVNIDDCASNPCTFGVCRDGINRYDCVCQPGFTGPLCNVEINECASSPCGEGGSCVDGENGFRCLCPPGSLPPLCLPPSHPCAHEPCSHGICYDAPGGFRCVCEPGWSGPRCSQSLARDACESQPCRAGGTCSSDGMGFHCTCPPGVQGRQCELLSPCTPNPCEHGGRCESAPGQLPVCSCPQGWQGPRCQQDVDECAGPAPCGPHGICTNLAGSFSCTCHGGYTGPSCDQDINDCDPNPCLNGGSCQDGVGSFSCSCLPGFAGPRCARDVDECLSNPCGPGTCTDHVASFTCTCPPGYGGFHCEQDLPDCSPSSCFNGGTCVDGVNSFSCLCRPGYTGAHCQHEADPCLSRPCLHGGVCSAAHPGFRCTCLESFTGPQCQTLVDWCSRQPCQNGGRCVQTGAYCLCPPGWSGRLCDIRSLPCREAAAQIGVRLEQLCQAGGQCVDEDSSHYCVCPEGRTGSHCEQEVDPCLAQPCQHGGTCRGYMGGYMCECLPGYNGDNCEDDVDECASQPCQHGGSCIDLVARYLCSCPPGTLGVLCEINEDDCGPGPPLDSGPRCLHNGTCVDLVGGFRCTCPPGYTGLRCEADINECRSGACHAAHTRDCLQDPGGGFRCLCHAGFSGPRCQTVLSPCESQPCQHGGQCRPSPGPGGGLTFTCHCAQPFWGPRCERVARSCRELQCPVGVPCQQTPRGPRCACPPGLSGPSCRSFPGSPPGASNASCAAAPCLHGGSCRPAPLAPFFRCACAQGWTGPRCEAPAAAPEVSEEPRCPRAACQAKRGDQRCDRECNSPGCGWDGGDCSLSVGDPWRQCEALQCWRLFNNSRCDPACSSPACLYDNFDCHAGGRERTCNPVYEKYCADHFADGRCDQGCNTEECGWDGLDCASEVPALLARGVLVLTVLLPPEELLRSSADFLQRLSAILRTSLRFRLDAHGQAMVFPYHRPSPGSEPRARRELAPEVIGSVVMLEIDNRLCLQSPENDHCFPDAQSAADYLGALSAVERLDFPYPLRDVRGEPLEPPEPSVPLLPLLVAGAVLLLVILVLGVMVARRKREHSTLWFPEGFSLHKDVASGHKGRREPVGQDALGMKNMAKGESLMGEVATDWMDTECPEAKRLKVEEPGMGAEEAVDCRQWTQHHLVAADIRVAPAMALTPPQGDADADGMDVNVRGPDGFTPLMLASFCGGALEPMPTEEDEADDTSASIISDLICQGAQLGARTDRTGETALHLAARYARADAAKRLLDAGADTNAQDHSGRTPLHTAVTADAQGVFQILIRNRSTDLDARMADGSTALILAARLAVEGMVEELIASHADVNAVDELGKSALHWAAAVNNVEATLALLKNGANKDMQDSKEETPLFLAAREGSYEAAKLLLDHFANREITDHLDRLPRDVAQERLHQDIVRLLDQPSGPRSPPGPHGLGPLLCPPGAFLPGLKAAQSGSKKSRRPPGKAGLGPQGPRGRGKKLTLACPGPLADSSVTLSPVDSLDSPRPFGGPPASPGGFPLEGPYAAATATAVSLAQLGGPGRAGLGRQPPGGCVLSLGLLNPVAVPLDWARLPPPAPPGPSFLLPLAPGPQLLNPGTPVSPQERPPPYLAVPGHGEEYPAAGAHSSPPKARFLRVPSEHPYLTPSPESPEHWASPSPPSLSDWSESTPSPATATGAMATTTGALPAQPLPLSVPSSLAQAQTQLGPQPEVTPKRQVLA
Protocol: as §1, §2

[3] = target: Endogenous NOTCH2 (MDA-MB-231 cell lysate) (UniProt Q04721 26-2471, limits assumed); test: as above
Protocol: as §1, §2

Chain of Endogenous NOTCH1 (MDA-MB-231 cell lysate) (P46531 19-2555 limits assumed): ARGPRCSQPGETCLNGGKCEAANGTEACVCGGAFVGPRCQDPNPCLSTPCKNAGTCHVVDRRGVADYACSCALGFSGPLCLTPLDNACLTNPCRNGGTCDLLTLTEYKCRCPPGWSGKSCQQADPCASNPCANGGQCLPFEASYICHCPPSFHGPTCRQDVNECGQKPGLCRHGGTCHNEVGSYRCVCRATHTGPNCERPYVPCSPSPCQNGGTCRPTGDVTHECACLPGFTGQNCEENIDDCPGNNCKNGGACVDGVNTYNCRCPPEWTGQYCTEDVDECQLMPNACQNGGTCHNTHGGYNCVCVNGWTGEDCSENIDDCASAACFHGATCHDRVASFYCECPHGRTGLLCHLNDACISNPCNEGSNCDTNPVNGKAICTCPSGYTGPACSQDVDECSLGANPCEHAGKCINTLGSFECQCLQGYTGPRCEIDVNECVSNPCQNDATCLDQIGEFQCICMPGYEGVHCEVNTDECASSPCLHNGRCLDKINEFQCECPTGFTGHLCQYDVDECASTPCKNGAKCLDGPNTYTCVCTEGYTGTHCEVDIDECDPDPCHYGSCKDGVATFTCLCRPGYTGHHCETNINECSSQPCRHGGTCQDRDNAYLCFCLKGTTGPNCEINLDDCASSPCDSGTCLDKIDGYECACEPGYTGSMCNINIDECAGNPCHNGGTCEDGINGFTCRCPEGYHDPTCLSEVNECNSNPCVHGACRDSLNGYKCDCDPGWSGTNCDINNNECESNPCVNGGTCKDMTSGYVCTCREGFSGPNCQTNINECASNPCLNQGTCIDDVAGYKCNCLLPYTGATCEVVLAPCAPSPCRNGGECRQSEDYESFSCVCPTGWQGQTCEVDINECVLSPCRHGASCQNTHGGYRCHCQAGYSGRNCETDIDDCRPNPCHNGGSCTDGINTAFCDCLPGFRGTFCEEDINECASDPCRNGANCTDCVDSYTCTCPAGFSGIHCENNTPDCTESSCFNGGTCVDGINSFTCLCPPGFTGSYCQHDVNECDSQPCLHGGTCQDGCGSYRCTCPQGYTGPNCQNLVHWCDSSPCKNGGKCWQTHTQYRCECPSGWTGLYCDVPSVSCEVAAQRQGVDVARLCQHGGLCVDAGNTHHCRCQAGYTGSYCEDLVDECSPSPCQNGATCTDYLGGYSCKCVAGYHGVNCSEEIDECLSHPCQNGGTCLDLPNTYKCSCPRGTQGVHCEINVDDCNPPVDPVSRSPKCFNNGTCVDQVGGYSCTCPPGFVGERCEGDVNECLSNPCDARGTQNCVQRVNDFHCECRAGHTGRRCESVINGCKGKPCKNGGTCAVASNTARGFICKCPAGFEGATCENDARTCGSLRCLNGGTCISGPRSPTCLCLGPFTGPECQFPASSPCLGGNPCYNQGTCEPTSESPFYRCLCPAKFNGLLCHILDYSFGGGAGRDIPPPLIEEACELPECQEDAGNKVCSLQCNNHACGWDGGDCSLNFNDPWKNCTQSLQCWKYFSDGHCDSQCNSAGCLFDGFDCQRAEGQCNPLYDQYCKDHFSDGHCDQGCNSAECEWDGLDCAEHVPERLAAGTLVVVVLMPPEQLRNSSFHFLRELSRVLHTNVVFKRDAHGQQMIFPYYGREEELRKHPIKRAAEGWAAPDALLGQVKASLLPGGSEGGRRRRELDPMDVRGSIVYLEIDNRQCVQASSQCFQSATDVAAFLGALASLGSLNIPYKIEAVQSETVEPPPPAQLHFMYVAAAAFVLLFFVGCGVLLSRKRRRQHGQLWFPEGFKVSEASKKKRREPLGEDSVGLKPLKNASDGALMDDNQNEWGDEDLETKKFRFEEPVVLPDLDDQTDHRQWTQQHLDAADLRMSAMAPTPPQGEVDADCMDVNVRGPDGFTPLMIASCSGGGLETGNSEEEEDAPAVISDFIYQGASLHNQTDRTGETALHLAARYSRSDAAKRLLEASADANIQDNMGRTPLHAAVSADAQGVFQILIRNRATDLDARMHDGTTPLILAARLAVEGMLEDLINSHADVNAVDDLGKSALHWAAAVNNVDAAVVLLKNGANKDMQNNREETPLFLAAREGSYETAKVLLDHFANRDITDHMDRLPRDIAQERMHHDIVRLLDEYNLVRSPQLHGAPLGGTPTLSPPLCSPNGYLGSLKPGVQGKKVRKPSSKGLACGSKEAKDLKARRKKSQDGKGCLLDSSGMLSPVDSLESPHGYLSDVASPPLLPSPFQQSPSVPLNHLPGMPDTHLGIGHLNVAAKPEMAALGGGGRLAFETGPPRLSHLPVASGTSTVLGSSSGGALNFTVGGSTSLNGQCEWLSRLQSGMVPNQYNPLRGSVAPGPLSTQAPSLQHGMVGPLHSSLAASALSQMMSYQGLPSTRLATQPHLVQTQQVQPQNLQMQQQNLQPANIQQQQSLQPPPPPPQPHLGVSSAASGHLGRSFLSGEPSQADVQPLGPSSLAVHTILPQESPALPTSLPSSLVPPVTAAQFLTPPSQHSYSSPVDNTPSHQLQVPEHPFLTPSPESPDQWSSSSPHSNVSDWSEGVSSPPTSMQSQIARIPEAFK

- binding result [1]: no binding
- binding result [2]: no binding
- binding result [3]: no binding
B1: Endogenous ROBO1 (MDA-MB-231 and HEK293 cell lysates) (receptor, UniProt Q9Y6N7 26-1651, looked up)
chain: QLIPDPEDVERGNDHGTPIPTSDNDDNSLGYTGSRLRQEDFPPRIVEHPSDLIVSKGEPATLNCKAEGRPTPTIEWYKGGERVETDKDDPRSHRMLLPSGSLFFLRIVHGRKSRPDEGVYVCVARNYLGEAVSHNASLEVAILRDDFRQNPSDVMVAVGEPAVMECQPPRGHPEPTISWKKDGSPLDDKDERITIRGGKLMITYTRKSDAGKYVCVGTNMVGERESEVAELTVLERPSFVKRPSNLAVTVDDSAEFKCEARGDPVPTVRWRKDDGELPKSRYEIRDDHTLKIRKVTAGDMGSYTCVAENMVGKAEASATLTVQEPPHFVVKPRDQVVALGRTVTFQCEATGNPQPAIFWRREGSQNLLFSYQPPQSSSRFSVSQTGDLTITNVQRSDVGYYICQTLNVAGSIITKAYLEVTDVIADRPPPVIRQGPVNQTVAVDGTFVLSCVATGSPVPTILWRKDGVLVSTQDSRIKQLENGVLQIRYAKLGDTGRYTCIASTPSGEATWSAYIEVQEFGVPVQPPRPTDPNLIPSAPSKPEVTDVSRNTVTLSWQPNLNSGATPTSYIIEAFSHASGSSWQTVAENVKTETSAIKGLKPNAIYLFLVRAANAYGISDPSQISDPVKTQDVLPTSQGVDHKQVQRELGNAVLHLHNPTVLSSSSIEVHWTVDQQSQYIQGYKILYRPSGANHGESDWLVFEVRTPAKNSVVIPDLRKGVNYEIKARPFFNEFQGADSEIKFAKTLEEAPSAPPQGVTVSKNDGNGTAILVSWQPPPEDTQNGMVQEYKVWCLGNETRYHINKTVDGSTFSVVIPFLVPGIRYSVEVAASTGAGSGVKSEPQFIQLDAHGNPVSPEDQVSLAQQISDVVKQPAFIAGIGAACWIILMVFSIWLYRHRKKRNGLTSTYAGIRKVPSFTFTPTVTYQRGGEAVSSGGRPGLLNISEPAAQPWLADTWPNTGNNHNDCSISCCTAGNGNSDSNLTTYSRPADCIANYNNQLDNKQTNLMLPESTVYGDVDLSNKINEMKTFNSPNLKDGRFVNPSGQPTPYATTQLIQSNLSNNMNNGSGDSGEKHWKPLGQQKQEVAPVQYNIVEQNKLNKDYRANDTVPPTIPYNQSYDQNTGGSYNSSDRGSSTSGSQGHKKGARTPKVPKQGGMNWADLLPPPPAHPPPHSNSEEYNISVDESYDQEMPCPVPPARMYLQQDELEEEEDERGPTPPVRGAASSPAAVSYSHQSTATLTPSPQEELQPMLQDCPEETGHMQHQPDRRRQPVSPPPPPRPISPPHTYGYISGPLVSDMDTDAPEEEEDEADMEVAKMQTRRLLLRGLEQTPASSVGDLESSVTGSMINGWGSASEEDNISSGRSSVSSSDGSFFTDADFAQAVAAAAEYAGLKVARRQMQDAAGRRHFHASQCPRPTSPVSTDSNMSAAVMQKTRPAKKLKHQPGHLRRETYTDDLPPPPVPPPAIKSPTAQSKTQLEVRPVVVPKLPSMDARTDRSSDRKGSSYKGREVLDGRQVVDMRTNPGDPREAQEQQNDGKGRGNKAAKRDLPPAKTHLIQEDILPYCRPTFPTSNNPRDPSSSSSMSSRGSGSRQREQANVGRRNIAEMQVLGGYERGEDNNEELEETES
notes: Endogenous full-length receptor in detergent cell lysate, immunoprecipitated with an anti-ROBO1 antibody; Human is inferred from the cell lines; also called R1
